Experiments:
APOBEC3A (A3A) wild-type [1] = target: T1, APOBEC3A (A3A) wild-type (Homo sapiens, UniProt P31941 1-199); assay: NMR titration
APOBEC3A (A3A) wild-type [2] = target: T1, APOBEC3A (A3A) wild-type; assay: EMSA
APOBEC3A (A3A) wild-type [3] = target: T1, APOBEC3A (A3A) wild-type; assay: NMR titration; remark: listed apart in the source
APOBEC3A E72Q = APOBEC3A E72Q (Homo sapiens, UniProt P31941 1-199, E72Q); assay: NMR titration
Sequence of APOBEC3A E72Q (P31941 whole entry E72Q): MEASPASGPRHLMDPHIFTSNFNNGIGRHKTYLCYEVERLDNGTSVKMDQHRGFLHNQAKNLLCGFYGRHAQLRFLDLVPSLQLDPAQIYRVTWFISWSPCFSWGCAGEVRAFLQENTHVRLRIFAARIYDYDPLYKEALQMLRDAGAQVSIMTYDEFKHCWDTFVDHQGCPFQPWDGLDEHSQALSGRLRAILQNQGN

T1 sequence (P31941 whole entry): as the sequence (P31941 whole entry E72Q) above, with Q72E counted along it

For ATTTUATTT (ssDNA, dU at position 5) [ATTTUATTT (9-nt product)], which Kd (APOBEC3A (A3A) wild-type [1]) is on record?
Its Kd is 58 ± 8 µM.

How did the “apparent K (half saturation)” value (APOBEC3A (A3A) wild-type [2]) turn out when AUUAUUAUUAUUAUUAUUAUUUCAUUUAUUUAUUUAUUUA (ssRNA) [40-nt ssRNA JL931] was run?
The value was about 40 µM.

With AAACAAAAA (ssDNA, C deaminated to dU during titration) [AAACAAAAA (value is for dU-containing product)] as the binder, how does the Kd (APOBEC3A (A3A) wild-type [3]) read?
Its Kd is 161 ± 19 µM.

For ATTATTTCATTTATT (ssDNA) [ATTATTTCATTTATT (15-nt substrate)], which Kd (APOBEC3A E72Q) is on record?
Its Kd is 55 ± 11 µM.

For TCATTT (ssDNA, C at position 2 converted to dU during titration) [TCATTT (6-nt; value is for dU product)], which Kd (APOBEC3A (A3A) wild-type [3]) is on record?
Its Kd is 194 ± 18 µM.

AAACCAAAA (ssDNA, C deaminated to dU during titration) [AAACCAAAA (value is for dU-containing product)] was tested. Which Kd (APOBEC3A (A3A) wild-type [3]) did it give?
Its Kd is 94 ± 11 µM.

AAACCCAAA (ssDNA, C deaminated to dU during titration) [AAACCCAAA (value is for dU-containing product)] was tested. Which Kd (APOBEC3A (A3A) wild-type [3]) did it give?
Its Kd is 91 ± 15 µM.

How did the Kd (APOBEC3A (A3A) wild-type [1]) turn out when ATTATTTUATTTATT (ssDNA, dU at position 8) [ATTATTTUATTTATT (15-nt product)] was run?
Its Kd is 57 ± 11 µM.

For ATTATTATTATTATTATTATTTCATTTATTTATTTATTTA (ssDNA) [40-nt ssDNA JL895], which Kd (APOBEC3A (A3A) wild-type [2]) is on record?
The Kd was about 80 µM.

— publication PMC3674325
